Here are results for 1 molecule from patent publication US20220105163A1 (UNITED BIOMEDICAL, published 2022).

By IC50 is commonly meant the concentration that gives 50% inhibition.

Experiment [1] has as its target T1, Recombinant His-tagged human IL-6Rα (human, UniProt P08887 20-365, limits assumed).
T1 construct: Bought from GenScript; also called sIL-6Rα; not shown: His tag
T1 sequence (looked up): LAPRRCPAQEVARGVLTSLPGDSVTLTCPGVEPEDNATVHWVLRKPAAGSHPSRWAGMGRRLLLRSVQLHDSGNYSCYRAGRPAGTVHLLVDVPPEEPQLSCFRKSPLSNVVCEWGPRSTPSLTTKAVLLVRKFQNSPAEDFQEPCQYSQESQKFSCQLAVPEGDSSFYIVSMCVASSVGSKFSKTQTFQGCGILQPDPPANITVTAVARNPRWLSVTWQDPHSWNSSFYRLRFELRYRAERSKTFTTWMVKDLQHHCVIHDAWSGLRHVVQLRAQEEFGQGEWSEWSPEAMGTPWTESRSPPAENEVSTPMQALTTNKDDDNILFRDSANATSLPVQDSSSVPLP
Briefly: competition ELISA: inhibition of IL-6 binding to coated IL-6Rα (cis-binding). A general note: An ELISA detects its analyte on a solid surface through an enzyme-linked reagent.

The target in experiment [2] is T1, Recombinant His-tagged human IL-6Rα. Kind of experiment: competition ELISA: inhibition of IL-6/IL-6Rα complex binding to coated gp130-Fc (trans-binding).

B1: Tocilizumab (antibody, V domains shown)
VH: QVQLQESGPGLVRPSQTLSLTCTVSGYSITSDHAWSWVRQPPGRGLEWIGYISYSGITTYNPSLKSRVTMLRDTSKNQFSLRLSSVTAADTAVYYCARSLARTTAMDYWGQGSLVTVSS
VL: DIQMTQSPSSLSASVGDRVTITCRASQDISSYLNWYQQKPGKAPKLLIYYTSRLHSGVPSRFSGSGSGTDFTFTISSLQPEDIATYYCQQGNTLPYTFGQGTKVEIKR
Consider B1, for which the values for the half-maximal inhibitory concentration (IC50) in experiment [1] and in experiment [2] were 0.935 µg/mL and 0.1 µg/mL, respectively.
